Measurements reported in the RNAGym collection of RNA variant scans (doi:10.1073/pnas.2313332121).
Variants at the floor of the assay were thinned out.

B1: TPR 5TU (parent)
chain: GGAUCUUCUCGAUCUAACAAAAAAGACAAAUCUGCCACAAAGCUUGAGAGCAUCUUCGGAUGCAGAGGCGGCAGCCUUCGGUGGCGCGAUAGCGCCAACGUUCUCAACUAUGACACGCAAAACGCGUGCUCCGUUGAAUGGAGUUUAUCAUG

Variants of: B1
Assay: polymerase ribozyme fitness, log enrichment relative to wild type (log ratio); higher = more active; in vitro selection for triplet polymerase activity
Summary of the method: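 Fitness measures genotype enrichment against wild-type enrichment on a logarithmic scale, with inverse-variance-weighted averaging of replicates. The logarithm is base 2, and genotypes were kept only with ≥10 input reads and ≥1 read per output in Illumina sequencing. The sequenced libraries came from one triplicate in vitro selection round, including frozen incubation at −7 °C, of PCR-built, transcribed mutant libraries of each subunit of a heterodimeric triplet polymerase ribozyme.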

Row | Variant | polymerase ribozyme fitness (log ratio)
1 | GGAUCUUCUCGAUCUAACAAAAAAGACAAAUCUGCCACAAAGCUUGAGAGCAUCUUCGGCUGCAGAGGCGUCAGCCUUCGGUGGCGCGAUACCGCCAACGUUCUCAAGUAUGACACACAAAACUCGUGCUCCGUUGCAUGGAGUUUAUCAUG [A60C G71U G92C C108G G117A G124U A137C] | -4.08
2 | GGAUCUUCUCGAUCUAACAAAAAAGACAAAUCUGCCACAAAGCUUGAGAGCAUCUUCGGAUGCAGAGGCGGCAGCCUUCGGUGGCGCUAUAGCGCCAACGUUCUCAACUAUGACACGCAAAACGCGUGCUCUGUUGAAUGGAGUUUAUCAUG [G88U C132U] | -3.92
3 | GGAUCUUCUGGAUCUAACAAAAAAGACAAAUCUGCCACAAAGCUUGAGAGCAUCAUCGGAUGCAGAGGCGGCAGCCUUCGGUGGCGCGAUAGCGCCAACGUUCUCAACUAUGACACGCAAAACGCGUGCUCCGUUGAAUGGAGUUUAACCUG [C10G U55A U148A A150C] | ≤ -4.2
4 | GGAUCUACUCAAUCUAACAAAAAAGACAAAUUUGGCACAAUGCUUGAGAGCAUCAUCGGAUGCAGAGGCGGCAGCCUUCGGUGGCGGGAUAGCGACAACGUUCUCAACUAUGAUACGCAAAACGCGUGCUCCGUUGAAUGGAGUUUAUCAUG [U7A G11A C32U C35G A41U U55A C87G C95A C114U] | ≤ -4.2
5 | GGAUCUUCUCGAUCUAACAAAAAAGACAAAUCUGCCACAAAGCUUGAGAGCAUCUUCGGAUGCAGAGGCGGCAGCCUUCGGUGGGGCGAUAGCGCCAACGUUCCCAACUAUGACACGCAAAACGCGUGCUCCGUUGAAUGGAGUUUAUCAUG [C85G U104C] | -2.69
6 | GGAUCUUCUCGAUCUAACAAAAAAGACAAAUCUGCCACAAAGCUUGAGAGCAUCUACGGAUGCAGAGGCGGCAGCCUUCGGUGGCGCGAUAGCGCCAACGUUCUCCACGAUGAUACGAAAAACGCGUGCUCCGUUGAAUGGAGUUUAUCAUG [U56A A106C U109G C114U C118A] | ≤ -4.2
7 | GGAUCUUCUCGAUCUAACAAAAAAGACUAAUCUGCCACAAAGCUUGAGAGCAUCUUCGGAUGCAGAGGCGGCAGCCUUCGGUGGCGCCAUUGCGCCAACGUUCUCAACUAUGACACGAAAAACGCGUGCUCCGUUGAAUGGAGUUUAUCAUG [A28U G88C A91U C118A] | ≤ -4.2
8 | GGAUCUUCUCGAUCUAACAAAAAAGACAAAUCUGCCACAAAGCUUGAGAGCAUCUUCGGAUACAGAGGCGGCAGCCUUCGGUGGCGCGAUAGCGCCAACGUUCUCAACUAUGACACGCACAACGCGUGCUCCGUUGAAUGGAGUUUAUCAUG [G62A A120C] | -1.04
9 | GGAUCUUCUCGAUCUAACAAAAAAGACAAAUCUGCCACCAAGCUUGAGAGCAUCUUCGGAUGCAGAGGCGGCAGCCUUCGGUGGCUCGAUCGCGCCAACGUUCUCAACUAUGACACGCAAAACGCGUGCUCCGUUGAAUGGAGUUUAUCUUG [A39C G86U A91C A150U] | ≤ -4.2
10 | GGAUCUUCUCGAUCUAACAAAAAAGACAAUUCUGCCACAAAGCUUGAGAGCAUCUUCGGAUGCAGAGGCGGCAGCCUUCGGUGGCGCGAUAGCACCAACGUUCUCAACUAUGACACGCAAAACGCGUGCUCCGUUGAAUGAAGUUUAUCAUG [A30U G94A G141A] | ≤ -4.2
11 | GGAUCUUCCCGAUCUAACAAAAAAGACAAAUCUGCCACAAAGCUUGAGAGCAUCUUUGGAUGCAGAGGCGGCAGCCUUCGGUAGCGCGAUAGCGCCAACGUUCUCAACUAUGACACGCUAAACCCGUGCUCCGUUGAAUGGAGUUUAUCAUG [U9C C57U G83A A119U G124C] | ≤ -4.2
12 | GGAUCUUCUCGAUCUAACAAAAAAGACAAAUCUGCCACAGAGCUUGAGAGCAUCUUCGGAUGCAGAAGCGGCAGCCUUCGGUGGCGCGAUAGCACCAACAUUCUCAUCUAUGACACGCAAAACGCGUGCUCCGUUGAAUGGAGUUUAUCAUG [A40G G67A G94A G100A A107U] | ≤ -4.2
13 | GGAUCUUCUCGAUCUAACAAAGAAGACAUAUCUGCCACAAAGCUUGAGAGCAUCUUCGGAUGCAGAGGCGGCAGCCUUCGGUGGCGCAAUAGCGCCAACGUUCUCAACUAUGACACUCAAAACGCGUGCUCCGUUGAAUAGAGUUUAUCAUG [A22G A29U G88A G117U G140A] | ≤ -4.2
14 | GGAUCUUCUCGAUCUAACAAAAAAGACAAAUCUGCCACAAAGCUUGAGAGCUUCUUCGGAUGCAGAGGCGGCAGCCUUCGGUGGCGCGAUAGAGCCAACGUUCUCAACCAGGACACGCAAAACGCGUGCUCCGUUGAAUCGAGUUUAUCAUA [A52U C93A U109C U111G G140C G152A] | ≤ -4.2
15 | GGAUCUUCUCGACCUAACAAAAAAGACAAAUCUGCCACAAAGCUUGAGAGCAUCAUCGGAUGCAGAGGCGGCAGCCUUCGGUGGAGCGAUAGCGCCAACGUUCUCAACUAUGACACGCAAAACGUGUGCUCCGUUGAAUGGAGUUUAUCAUG [U13C U55A C85A C125U] | -1.98
16 | GGAUCUUCUCGAUCUAACAAAAAAGACAAAUCUGCCACAAAGCUUGAGAGCAGCUUCGGAUGCAGAGGCGGCAGCCUUCGGUGGCGCGAUAGCGCCAACGUUCUCAACUAUGACACGCAAAACGCGUGCUCCGUUGAAUGGAGUUUAUCUUG [U53G A150U] | -1.34
17 | GGAUCUUCUCGAUCUAACAAAAAAGAUAAAUCUGCUACAAAGCUUGAGAGCAUCUUUAGAUGCAGAGGCGGCAGCCUUCGGUGGCGCGAUAGCGCAAACGUUCUCAACUAUGACACGCAAUACGCGUGCUCCGUUGAAUAGAGUUUAUCAUG [C27U C36U C57U G58A C96A A121U G140A] | ≤ -4.2
18 | GGGUCUUCUCGAUCUAACAAAAAAGACAAAUCUGCCACAAAGCUUGAGAGCAUCUUCGGAUGCAGAGGCGGUAGCCUUCGGUGGUGCGAUAGCGCCAACGUUCUCAACUAUGACACGCAAAACGCGUGCUCCGUUGAAUGGAGUUCAUCAUG [A3G C72U C85U U146C] | -0.724
19 | GGAUCUUCUCGAUCUAACAAAAAAGACAAAUCUGCCACAAAGCUUGAGAGCAUCUACGGAUGCAGAGGCGGCAGCCUUCGGUGGCGCGAUAGCGCCAACGUUCUCGACUAUGACACGCAAAACGCGUGCUCCGUUGAAUGGAGUUUAUCAUG [U56A A106G] | -0.585
